Measured values from article PMC4812828 (Nature structural & molecular biology, 2016).

Tests used:
Assay in all cases: cryo-EM structure
Cdc45 = target: T1, Cdc45 (S. cerevisiae, UniProt Q08032 1-650)
T1 sequence: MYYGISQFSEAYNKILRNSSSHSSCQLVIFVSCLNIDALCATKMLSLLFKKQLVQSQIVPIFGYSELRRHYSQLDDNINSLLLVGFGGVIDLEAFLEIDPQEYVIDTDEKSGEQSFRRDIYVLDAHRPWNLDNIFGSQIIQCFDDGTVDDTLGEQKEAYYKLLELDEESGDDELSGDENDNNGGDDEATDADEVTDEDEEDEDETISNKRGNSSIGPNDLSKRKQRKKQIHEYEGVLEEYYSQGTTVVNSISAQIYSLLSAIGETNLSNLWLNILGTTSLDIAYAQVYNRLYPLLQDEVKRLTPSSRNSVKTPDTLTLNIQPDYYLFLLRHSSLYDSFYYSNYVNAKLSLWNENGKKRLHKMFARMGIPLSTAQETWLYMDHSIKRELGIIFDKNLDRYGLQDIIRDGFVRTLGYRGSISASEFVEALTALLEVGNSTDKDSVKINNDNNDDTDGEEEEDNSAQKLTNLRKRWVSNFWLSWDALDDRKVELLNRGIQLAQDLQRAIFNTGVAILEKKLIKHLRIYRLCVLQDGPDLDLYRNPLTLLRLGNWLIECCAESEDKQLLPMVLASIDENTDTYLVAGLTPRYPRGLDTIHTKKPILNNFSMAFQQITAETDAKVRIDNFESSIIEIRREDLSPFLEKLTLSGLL

Mcm3 = Mcm3 (S. cerevisiae, UniProt P24279 1-971)
Chain of Mcm3 (P24279 whole entry): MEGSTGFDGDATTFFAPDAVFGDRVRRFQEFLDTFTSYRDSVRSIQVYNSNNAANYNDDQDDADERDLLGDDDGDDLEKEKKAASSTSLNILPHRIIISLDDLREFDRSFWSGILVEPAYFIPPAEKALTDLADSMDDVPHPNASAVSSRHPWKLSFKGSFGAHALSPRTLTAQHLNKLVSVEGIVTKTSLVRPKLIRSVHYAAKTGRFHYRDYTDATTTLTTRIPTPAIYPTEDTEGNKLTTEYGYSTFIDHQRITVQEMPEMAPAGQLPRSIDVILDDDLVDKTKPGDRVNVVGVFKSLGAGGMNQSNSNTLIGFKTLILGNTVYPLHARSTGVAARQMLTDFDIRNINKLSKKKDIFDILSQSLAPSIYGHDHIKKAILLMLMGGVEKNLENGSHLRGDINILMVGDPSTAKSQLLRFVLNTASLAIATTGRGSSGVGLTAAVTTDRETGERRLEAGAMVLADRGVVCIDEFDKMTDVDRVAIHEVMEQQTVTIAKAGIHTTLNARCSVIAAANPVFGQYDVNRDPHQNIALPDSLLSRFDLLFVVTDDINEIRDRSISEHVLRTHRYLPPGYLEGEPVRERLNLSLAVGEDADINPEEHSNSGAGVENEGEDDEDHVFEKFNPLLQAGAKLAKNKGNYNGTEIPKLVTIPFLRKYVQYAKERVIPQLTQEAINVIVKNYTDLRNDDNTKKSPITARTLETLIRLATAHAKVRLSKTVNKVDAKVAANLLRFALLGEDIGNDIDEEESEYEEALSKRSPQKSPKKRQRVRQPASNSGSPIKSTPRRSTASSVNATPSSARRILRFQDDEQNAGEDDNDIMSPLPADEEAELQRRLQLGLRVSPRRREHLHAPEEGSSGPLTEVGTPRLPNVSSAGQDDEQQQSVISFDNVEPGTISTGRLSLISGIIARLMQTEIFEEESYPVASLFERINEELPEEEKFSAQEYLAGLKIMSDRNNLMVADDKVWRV

Mcm4 = target: T2, Mcm4 (S. cerevisiae, UniProt P30665 1-933)
T2 sequence: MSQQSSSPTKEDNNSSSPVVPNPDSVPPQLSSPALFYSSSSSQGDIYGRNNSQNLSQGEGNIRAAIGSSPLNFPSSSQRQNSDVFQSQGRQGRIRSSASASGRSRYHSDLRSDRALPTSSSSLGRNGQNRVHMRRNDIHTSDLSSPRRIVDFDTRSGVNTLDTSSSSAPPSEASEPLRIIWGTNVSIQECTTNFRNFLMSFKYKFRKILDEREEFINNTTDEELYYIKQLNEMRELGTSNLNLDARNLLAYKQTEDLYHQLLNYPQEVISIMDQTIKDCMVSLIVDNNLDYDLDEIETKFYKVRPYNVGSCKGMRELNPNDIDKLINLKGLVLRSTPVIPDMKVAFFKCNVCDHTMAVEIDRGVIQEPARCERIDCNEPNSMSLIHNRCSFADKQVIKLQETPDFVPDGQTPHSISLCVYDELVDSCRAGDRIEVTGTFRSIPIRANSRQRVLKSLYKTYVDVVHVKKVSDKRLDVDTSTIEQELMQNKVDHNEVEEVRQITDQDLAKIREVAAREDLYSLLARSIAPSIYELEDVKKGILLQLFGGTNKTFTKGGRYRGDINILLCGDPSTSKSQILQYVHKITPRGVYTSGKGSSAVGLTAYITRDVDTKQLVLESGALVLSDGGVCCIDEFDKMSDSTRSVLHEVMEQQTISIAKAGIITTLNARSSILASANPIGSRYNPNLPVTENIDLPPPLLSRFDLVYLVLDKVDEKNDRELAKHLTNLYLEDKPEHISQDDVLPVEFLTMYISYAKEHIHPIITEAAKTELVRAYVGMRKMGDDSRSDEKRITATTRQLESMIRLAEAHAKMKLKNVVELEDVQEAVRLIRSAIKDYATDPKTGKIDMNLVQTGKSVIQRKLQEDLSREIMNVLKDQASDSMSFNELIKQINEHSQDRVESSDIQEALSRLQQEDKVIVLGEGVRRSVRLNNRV

Mcm6 = Mcm6 (S. cerevisiae, UniProt P53091 1-1017)
Chain of Mcm6 (P53091 whole entry): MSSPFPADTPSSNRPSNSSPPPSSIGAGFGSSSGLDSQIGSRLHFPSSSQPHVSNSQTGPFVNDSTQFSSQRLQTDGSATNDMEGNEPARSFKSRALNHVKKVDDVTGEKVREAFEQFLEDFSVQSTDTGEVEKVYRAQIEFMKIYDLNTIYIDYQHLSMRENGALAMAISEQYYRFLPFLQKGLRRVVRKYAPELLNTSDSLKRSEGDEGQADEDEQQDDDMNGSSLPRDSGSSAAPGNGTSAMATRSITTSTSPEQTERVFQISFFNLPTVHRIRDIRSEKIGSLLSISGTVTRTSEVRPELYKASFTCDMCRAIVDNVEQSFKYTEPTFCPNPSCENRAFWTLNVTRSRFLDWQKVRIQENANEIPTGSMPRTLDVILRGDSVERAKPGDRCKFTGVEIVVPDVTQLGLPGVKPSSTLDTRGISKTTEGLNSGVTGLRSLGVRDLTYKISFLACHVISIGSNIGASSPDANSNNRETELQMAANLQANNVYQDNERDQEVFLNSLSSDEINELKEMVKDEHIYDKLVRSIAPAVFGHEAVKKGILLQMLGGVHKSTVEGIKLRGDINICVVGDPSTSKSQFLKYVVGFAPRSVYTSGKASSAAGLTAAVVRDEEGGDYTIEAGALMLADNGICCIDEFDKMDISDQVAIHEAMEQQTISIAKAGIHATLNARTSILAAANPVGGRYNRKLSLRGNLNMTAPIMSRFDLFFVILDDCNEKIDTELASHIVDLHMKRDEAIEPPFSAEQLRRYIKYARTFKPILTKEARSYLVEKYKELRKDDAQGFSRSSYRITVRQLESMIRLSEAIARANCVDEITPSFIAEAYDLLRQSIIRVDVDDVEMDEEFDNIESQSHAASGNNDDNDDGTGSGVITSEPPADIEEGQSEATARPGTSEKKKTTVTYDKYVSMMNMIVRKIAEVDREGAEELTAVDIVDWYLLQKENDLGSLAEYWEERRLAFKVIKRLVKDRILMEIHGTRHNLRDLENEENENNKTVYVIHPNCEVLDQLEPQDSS

GINS = target: T3, GINS (S. cerevisiae, UniProt Q03406;Q12488;P40359;Q12146)
T3 sequence 1: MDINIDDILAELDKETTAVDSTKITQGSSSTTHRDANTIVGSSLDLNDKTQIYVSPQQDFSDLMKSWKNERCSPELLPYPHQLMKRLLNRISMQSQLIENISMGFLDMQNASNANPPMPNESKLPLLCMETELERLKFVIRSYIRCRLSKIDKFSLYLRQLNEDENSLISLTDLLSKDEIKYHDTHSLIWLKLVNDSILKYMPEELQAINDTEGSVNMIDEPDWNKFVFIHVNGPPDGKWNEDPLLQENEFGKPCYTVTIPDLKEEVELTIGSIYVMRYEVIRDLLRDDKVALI
T3 sequence 2: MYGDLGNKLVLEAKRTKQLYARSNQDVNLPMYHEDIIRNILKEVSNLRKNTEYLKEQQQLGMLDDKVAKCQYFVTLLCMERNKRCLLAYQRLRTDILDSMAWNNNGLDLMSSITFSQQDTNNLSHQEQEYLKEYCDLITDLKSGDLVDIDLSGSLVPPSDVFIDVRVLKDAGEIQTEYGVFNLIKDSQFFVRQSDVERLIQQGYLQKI
T3 sequence 3: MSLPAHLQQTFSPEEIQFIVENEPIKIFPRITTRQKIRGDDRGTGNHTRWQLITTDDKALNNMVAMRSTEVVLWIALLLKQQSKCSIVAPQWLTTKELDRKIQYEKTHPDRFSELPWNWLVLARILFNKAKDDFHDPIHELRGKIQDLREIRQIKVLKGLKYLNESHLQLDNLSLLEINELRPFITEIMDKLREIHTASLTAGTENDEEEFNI
T3 sequence 4: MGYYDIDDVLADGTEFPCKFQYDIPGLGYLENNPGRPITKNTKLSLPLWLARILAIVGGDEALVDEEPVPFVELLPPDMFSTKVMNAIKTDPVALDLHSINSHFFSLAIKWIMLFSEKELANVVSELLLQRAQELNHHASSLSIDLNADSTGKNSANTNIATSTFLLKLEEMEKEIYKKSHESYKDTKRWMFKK

B1: Psf1 (natural protein)
chain: MYGDLGNKLVLEAKRTKQLYARSNQDVNLPMYHEDIIRNILKEVSNLRKNTEYLKEQQQLGMLDDKVAKCQYFVTLLCMERNKRCLLAYQRLRTDILDSMAWNNNGLDLMSSITFSQQDTNNLSHQEQEYLKEYCDLITDLKSGDLVDIDLSGSLVPPSDVFIDVRVLKDAGEIQTEYGVFNLIKDSQFFVRQSDVERLIQQGYLQKI
- binding result (Cdc45): binds

B2: Mcm7 (natural protein)
chain: MSAALPSIQLPVDYNNLFNEITDFLVTFKQDTLSSDATRNENEDENLDAENIEQHLLEKGPKYMAMLQKVANRELNSVIIDLDDILQYQNEKFLQGTQADDLVSAIQQNANHFTELFCRAIDNNMPLPTKEIDYKDDVLDVILNQRRLRNERMLSDRTNEIRSENLMDTTMDPPSSMNDALREVVEDETELFPPNLTRRYFLYFKPLSQNCARRYRKKAISSKPLSVRQIKGDFLGQLITVRGIITRVSDVKPAVEVIAYTCDQCGYEVFQEVNSRTFTPLSECTSEECSQNQTKGQLFMSTRASKFSAFQECKIQELSQQVPVGHIPRSLNIHVNGTLVRSLSPGDIVDVTGIFLPAPYTGFKALKAGLLTETYLEAQFVRQHKKKFASFSLTSDVEERVMELITSGDVYNRLAKSIAPEIYGNLDVKKALLLLLVGGVDKRVGDGMKIRGDINVCLMGDPGVAKSQLLKAICKISPRGVYTTGKGSSGVGLTAAVMKDPVTDEMILEGGALVLADNGICCIDEFDKMDESDRTAIHEVMEQQTISISKAGINTTLNARTSILAAANPLYGRYNPRLSPLDNINLPAALLSRFDILFLMLDIPSRDDDEKLAEHVTYVHMHNKQPDLDFTPVEPSKMREYIAYAKTKRPVMSEAVNDYVVQAYIRLRQDSKREMDSKFSFGQATPRTLLGIIRLSQALAKLRLADMVDIDDVEEALRLVRVSKESLYQETNKSKEDESPTTKIFTIIKKMLQETGKNTLSYENIVKTVRLRGFTMLQLSNCIQEYSYLNVWHLINEGNTLKFVDDGTMDTDQEDSLVSTPKLAPQTTASANVSAQDSDIDLQDA
- binding result (Mcm3): binds
- binding result (Mcm4): binds

B3: Psf2 (natural protein)
chain: MSLPAHLQQTFSPEEIQFIVENEPIKIFPRITTRQKIRGDDRGTGNHTRWQLITTDDKALNNMVAMRSTEVVLWIALLLKQQSKCSIVAPQWLTTKELDRKIQYEKTHPDRFSELPWNWLVLARILFNKAKDDFHDPIHELRGKIQDLREIRQIKVLKGLKYLNESHLQLDNLSLLEINELRPFITEIMDKLREIHTASLTAGTENDEEEFNI
- binding result (Cdc45): binds

B4: Mcm5 (natural protein)
chain: MSFDRPEIYSAPVLQGESPNDDDNTEIIKSFKNFILEFRLDSQFIYRDQLRNNILVKNYSLTVNMEHLIGYNEDIYKKLSDEPSDIIPLFETAITQVAKRISILSRAQSANNNDKDPENTSMDTDSLLLNSLPTFQLILNSNANQIPLRDLDSEHVSKIVRLSGIIISTSVLSSRATYLSIMCRNCRHTTSITINNFNSITGNTVSLPRSCLSTIESESSMANESNIGDESTKKNCGPDPYIIIHESSKFIDQQFLKLQEIPELVPVGEMPRNLTMTCDRYLTNKVIPGTRVTIVGIYSIYNSKNGAGSGRSGGGNGGSGVAIRTPYIKILGIQSDVETSSIWNSVTMFTEEEEEEFLQLSRNPKLYEILTNSIAPSIFGNEDIKKAIVCLLMGGSKKILPDGMRLRGDINVLLLGDPGTAKSQLLKFVEKVSPIAVYTSGKGSSAAGLTASVQRDPMTREFYLEGGAMVLADGGVVCIDEFDKMRDEDRVAIHEAMEQQTISIAKAGITTVLNSRTSVLAAANPIYGRYDDLKSPGDNIDFQTTILSRFDMIFIVKDDHNEERDISIANHVINIHTGNANAMQNQQEENGSEISIEKMKRYITYCRLKCAPRLSPQAAEKLSSNFVTIRKQLLINELESTERSSIPITIRQLEAIIRITESLAKLELSPIAQERHVDEAIRLFQASTMDAASQDPIGGLNQASGTSLSEIRRFEQELKRRLPIGWSTSYQTLRREFVDTHRFSQLALDKALYALEKHETIQLRHQGQNIYRSGV
- binding result (Mcm6): binds
- binding result (GINS): binds
